# From patent US6362319B1, “Glial cell line-derived neurotrophic factor” (Amgen Inc., priority 1991, dated 2002)
# B1: glial cell line-derived neurotrophic factor (protein)
# chain: SNMPEDYPDQFDDVMDFIQATIKRLKRSPDKQMAVLPRRERNRQAAAANPENSRGKGRRGQRGKNRGCVLTAIHLNVTDLGLGYETKEELIFRYCSGSCDAAETTYDKILKNLSRNRRLVTDKVGQACCRPIAF
# notes: dopaminergic neurotrophic protein purified from serum-free conditioned medium of rat B49 glioblastoma cells; disulfide-bonded dimer
# Tests used:
# Format in all cases: cell-based
# [1] = tested on: parasympathetic nerve cells from chick embryo ciliary ganglia; assay: Neuronal survival assay (MTT), ciliary ganglia
# Procedure: Cultures of primary check embryo ciliary ganglia and sympathetic chain ganglia were prepared as previously described (Collins 1978 Develop. Biol. 65:50; Manthorpe et al. 1986 Develop. Brain Res. 25:191). Briefly, ciliary or sympathetic ganglia were removed from fertile, pathogen free chicken eggs that had been incubated for 8 and 10 days, respectively, at 38° C. in a humidified atmosphere. […]
# Ten μl of a serial dilution of the sample to be assayed for neurotrophic activity was added to each well and the dishes were incubated for 20 hours at 37° C. in a humidified atmosphere containing 7.5% CO2. […] The absorbance of 570 nm was determined relative to a 690 nm reference for each well using an automatic microtiter plate reader (Dynatech, Chantilly, Va.). The absorbance of wells which had not received any neurotrophic agent (negative controls) was substracted from the absorbance of sample-containing wells. The resulting absorbance is proportional to the number of living cells in each well, defined as those nerve cells capable of reducing the dye. […] Specific activity was determined by dividing the number of trophic units by the amount of protein present in the sample.
# [2] = tested on: dopaminergic neurons in rat embryo (E16) mesencephalic cell cultures; assay: Bioassay for dopaminergic neurotrophic activity: 3H-dopamine uptake in dissociated mesencephalic cell cultures; conditions: cultures grown with GDNF for 15 days
# [3] = tested on: dopaminergic neurons in rat embryo (E16) mesencephalic cell cultures; assay: as above; conditions: for FOLD (specific activity relative to B49 conditioned medium): purification fold over CM
# Procedure: The dopaminergic activity of the GDNF is used to facilitate the purification process. […] Briefly, cultures of dissociated mesencephalic cells are prepared, either in serum rich or serum free environments. Samples to be tested for dopaminergic activity are desalted and serially added to the cell cultures and the dishes are incubated for 6 days at 37° C. in a humidified atmosphere containing 6.5% CO2. The cultures, in the presence of the testing material, are then incubated at 37° C. with tritiated dopamine (^3H-DA). The dopamine uptake is halted, the cells washed, and the dopamine uptake analyzed by scintillation counting of retained tritium in the cultures.
# Culture conditions: Dissociated mesencephalic cell cultures were prepared as previously described (Friedman and Mytilineou 1987 Neurosci. Lett. 79:65-72), with minor modifications. Briefly, rostral mesencephalic tegmentum from brains of Sprague-Dawley rat embryos, at the 16th day of gestation, were dissected under the microscope in sterile conditions, collected in Ca^2+- and Mg^2+-free Dulbecco's phosphate buffered saline (Gibco, Gaithersburg, Md.) and dissociated mechanically by mild trituration. The cells were plated in 100 μl per well onto 16-mm diameter tissue culture wells (Falcon, Lincoln Park, N.J., 24-well plate) containing 400 μl medium to give a density of 2.5-3.5×10^5 cells per well. The culture wells had been previously exposed to 0.1 mg/ml solution of poly L-ornithine in 10 mM sodium borate, pH 8.4, for 3 hours at 37° C., washed 3 times in milli-Q H2O and once in Earle's balanced salt solution (Gibco). The feeding medium (10/10) consisted of minimal essential medium (MEM, Gibco) supplemented with glucose (33 mM), sodium bicarbonate (24.5 mM), glutamine (2 mM), HEPES (15 mM), penicillin G (5 U/ml), streptomycin (5 μg/ml), 10% heat-inactivated fetal calf serum (Gibco) and 10% heat inactivated horse serum (Gibco). The cultures were kept at 37° C. in a water-saturated atmosphere containing 6.5% CO2. After 3 hours, when most of the cells had adhered to the bottom of the well, the medium was replaced with 500 μl of fresh medium. At this time, a serial dilution of the sample to be assayed for GDNF activity was added to each well in duplicate and the plates were incubated in the 37° C. incubator. After a week, the cultures were treated for 24 hours with fluorodeoxyuridine (13 μg/ml) and uridine (33 μg/ml) to prevent excessive glial proliferation and subsequently fed with the above medium without fetal calf serum. The feeding medium was changed weekly.
# Alternatively, chemically defined serum-free medium was used in which serum was replaced by a mixture of proteins; hormones and salts. The defined medium (DM) consisted of a mixture of MEM and F12 nutrient mixture (both Gibco, 1:1; vol/vol) with glucose (33 mM), glutamine (2 mM) NaHCO3 (24.5 mM), HEPES (15 mM), supplemented with transferrin (100 μg/ml), insulin (25 μg/ml), putrescine (60 μM), progesterone (20 nM), sodium selenite (30 nM), penicillin G (5 U/ml) and streptomycin (5 μg/ml). The osmolarity of the DM was adjusted to 325 by the addition of milli-Q H2O. (110-125 ml H2O/l). […] All assays reached in the following examples were done in serum-containing medium.
# The functional status of the dopaminergic neurons may be assayed in these cultures by measuring dopamine uptake through specific “scavenger” transporters in the dopaminergic neurons and by counting the number of neurons positive for the dopamine synthetic enzyme tyrosine hydroxylase using immunohistochemistry.
molecule,measurement,setting,value
B1,survival of parasympathetic nerve cells,[1],promotes the survival in culture of parasympathetic nerve cells
same,3H-DA uptake capacity over control without GDNF,[2],~150%
same,bioactivity in dopamine uptake assay,[3],active in stimulating dopamine uptake in both serum-containing and defined media
same,"SP. ACT (specific activity, dopamine uptake trophic units per protein)",[3]; TU = reciprocal of dilution giving 50% of maximal stimulation of 3H-DA uptake,"at least 12,000 TU/μg"
same,concentration for half-maximal stimulation of dopamine uptake,[3]; indicated by the specific activity,approximately 60 pg/ml
same,FOLD (specific activity relative to B49 conditioned medium),[3],"about 24,000"
same,FOLD (specific activity relative to B49 conditioned medium),[3]; listed as substantially purified GDNF,"at least 24,000"
same,estimated specific activity,[3]; purified GDNF after final RP-HPLC,about 17 trophic units/ng
same,ED50 for increasing dopamine uptake,[3]; rat embryo (E16) mesencephalic culture,about 50 pg/ml
